# Laboratory results published in publication PMC10911789.
# pKd: −log10 of the molar value.
# Biological target: Recombinant spike, SARS-CoV-2 stabilized protein (BEI Resources NR-52724) (SARS-CoV-2) (UniProt P0DTC2)
# Assay: BLI
# Sequence of recombinant human GAPDH (glyceraldehyde-3-phosphate dehydrogenase) (P04406 whole entry): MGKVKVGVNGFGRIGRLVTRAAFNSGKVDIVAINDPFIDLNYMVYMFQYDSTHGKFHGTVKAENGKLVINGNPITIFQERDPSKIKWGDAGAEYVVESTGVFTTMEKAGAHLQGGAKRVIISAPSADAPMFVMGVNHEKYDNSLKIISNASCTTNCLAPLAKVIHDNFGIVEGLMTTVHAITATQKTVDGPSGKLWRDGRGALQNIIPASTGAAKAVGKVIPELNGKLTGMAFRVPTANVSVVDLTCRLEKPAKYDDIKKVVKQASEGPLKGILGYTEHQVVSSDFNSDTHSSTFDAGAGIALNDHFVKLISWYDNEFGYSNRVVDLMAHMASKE
substance,measurement,value
recombinant human GAPDH (glyceraldehyde-3-phosphate dehydrogenase) (from UniProt P04406 1-335) (enzyme),pKd,7.21
